Where two headings read alike, the source gives them in different places. Where no end group is shown, it is not given here.
Tests used:
Pyk2-FAT = test: NMR titration / chemical shift perturbation of 15N-labeled Pyk2-FAT; assay type: binding, human
[1] = target: FAT domain of human Pyk2 (residues 871-1005) (Homo sapiens, UniProt Q14289); test: ITC of leupaxin LD peptides and leupaxin^1-105 binding to Pyk2-FAT
Pyk2-FAT-LD1 = Pyk2-FAT-LD1 (Homo sapiens, UniProt Q14289); conditions: X-ray, 2.0 Å (4XEV); 0.5 mM protein, 2 mM leupaxin-LD4 peptide
Pyk2-FAT domain = conditions: ref [36]; cited from earlier work
[2] = target: paxillin LD4 LD4 motif peptide (Homo sapiens) (UniProt P49023); conditions: cited from earlier work
[3] = target: paxillin LD4 LD4 motif peptide (Homo sapiens) (UniProt P49023); conditions: cited from earlier work; remark: listed apart in the source
[4] = target: Paxillin LD4 peptide LD4 (Homo sapiens) (UniProt P49023); conditions: cited from earlier work
[5] = target: Paxillin LD4 peptide LD4 (Homo sapiens) (UniProt P49023); conditions: cited from earlier work; remark: listed apart in the source
[6] = target: T1, FAT domain of human Pyk2 (residues 871-1005) (human, UniProt Q14289 871-1005); test: ITC
[7] = target: T1, FAT domain of human Pyk2 (residues …); test: SEC-MALS
[8] = target: T1, FAT domain of human Pyk2 (residues …); test: ITC; remark: listed apart in the source
[9] = ITC, 20 mM MES, pH 6.2, 15°C, two-site sequential model, first site, duplicate
[10] = ITC, 20 mM MES, pH 6.2, 15°C, two-site sequential model, second site, duplicate

Paxillin LD4 peptide LD4 (Homo sapiens), sequence (P49023 263-282): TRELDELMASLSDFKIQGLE

Which “CSP differences between leupaxin-LD1 and leupaxin-LD4” value (Pyk2-FAT; 4 equivalents peptide, 15N-labeled Pyk2-FAT, 20 mM MES, pH 6.2, 305K) does the source give for KTSAAAQLDELMAHLTEMQ [leupaxin-LD4] here?
Its value is “residues Arg 918 and Ala 951 from H2/H3 show a high magnitude of CSP”.

What about the “NMR site preference on Pyk2-FAT” value (Pyk2-FAT; NMR titrations, LD1 for H1/H4, LD4 for H2/H3, respectively) of the same molecule?
Its value is “strong preference for H1/H4 and H2/H3 sites of Pyk2-FAT, respectively”.

And the “Stoichiometry of binding (peptide to Pyk2-FAT)” value ([1]; ITC, 20 mM MES, pH 6.2, 15°C)?
The value was 2 to 1 stoichiometry.

And the “ΔG, first site” value [1, 9]?
The value was -7.6 ± 0.3 kcal/mol.

What about the “ΔH, first site” value [1, 9] of the same molecule?
Its value is -3.0 ± 0.2 kcal/mol.

And the “−T.ΔS, first site” value [1, 9]?
Its value is -4.6 ± 0.6 kcal/mol.

What about the “ΔG, second site” value [1, 10] of the same molecule?
The value was -6.0 ± 0.1 kcal/mol.

What about the “ΔH, second site” value [1, 10] of the same molecule?
Its value is 0.5 ± 0.3 kcal/mol.

What about the “−T.ΔS, second site” value [1, 10] of the same molecule?
The value was -6.5 ± 0.4 kcal/mol.

And the “Higher affinity at the preferred Pyk2-FAT binding site” value ([1]; ratio of the two site KDs (LD1 prefers H1/H4, LD4 prefers H2/H3))?
Its value is about 19 fold.

What about the “Binding site in crystal structure with Pyk2-FAT-LD1” value (Pyk2-FAT-LD1) of the same molecule?
The value was “binds at the H2/H3 site”.

And the “Binding behaviour with Pyk2-FAT (in words)” value (Pyk2-FAT domain)?
Its value is “compete equally for H2/H3”.

With “Pyk2 FAT (871-1005), H1/H4 site (from UniProt Q14289)” as the molecule, how does the Kd [2] read?
The Kd was 46.3 µM.

With “Pyk2 FAT (871-1005), H2/H3 site (from UniProt Q14289)” as the molecule, how does the Kd [3] read?
Its Kd is 8 µM.

For “Pyk2 FAT H1/H4 site (from UniProt Q14289)”, which Kd [4] is on record?
Its Kd is 46.3 µM.

With “Pyk2 FAT H2/H3 site (from UniProt Q14289)” as the molecule, how does the Kd [5] read?
Its Kd is 8 µM.

B1: leupaxin^1-105 (human leupaxin; residues 1-105) (domain or fragment, UniProt O60711 1-105, looked up)
chain: MEELDALLEELERSTLQDSDEYSNPAPLPLDQHSRKETNLDETSEILSIQDNTSPLPAQLVYTTNIQELNVYSEAQEPKESPPPSKTSAAAQLDELMAHLTEMQA
For B1, which Kd [6] is on record?
Its Kd is 0.6 ± 0.2 µM.

And the dH [6]?
Its dH is -2.5 ± 0.5 kcal/mol.

And the “stoichiometry N” value [6]?
The value was 1.

B2: leupaxin^1-151 (human leupaxin; residues 1-151) (domain or fragment, UniProt O60711 1-151, looked up)
chain: MEELDALLEELERSTLQDSDEYSNPAPLPLDQHSRKETNLDETSEILSIQDNTSPLPAQLVYTTNIQELNVYSEAQEPKESPPPSKTSAAAQLDELMAHLTEMQAKVAVRADAGKKHLPDKQDHKASLDSMLGGLEQELQDLGIATVPKGH
For B2, which “stoichiometry N” value [7] is on record?
Its value is 1.

Which dH first site [8] does the source give for MEELDALLEELERSTLQDSD (peptide, UniProt O60711 1-20, looked up) [leupaxin-LD1 peptide (human leupaxin; residues 1-20)] here?
The dH first site was -2 ± 0.2 kcal/mol.

What about the dH second site [8] of the same molecule?
Its dH second site is 1.6 ± 0.3 kcal/mol.

Which KD first site [8] does the source give for KTSAAAQLDELMAHLTEMQ (peptide, UniProt O60711 86-104, looked up) [leupaxin-LD4 peptide (human leupaxin; residues 86-104)] here?
The KD first site was 2.2 ± 1 µM.

And the KD second site [8]?
Its KD second site is 33 ± 7.2 µM.

And the dH first site [8]?
The dH first site was -3 ± 0.2 kcal/mol.

And the dH second site [8]?
Its dH second site is 0.5 ± 0.3 kcal/mol.

Reference: publication PMC4843776 (Biochemistry, 2016)
